Reference: patent publication US20190062457A1 (BROWN UNIVERSITY, published 2019)

Target: T1, human Chi3l1 (chitinase 3-like-1) (human, UniProt P36222 22-383)
T1 construct: also called YKL-40; recombinant (r) human Chi3l1
Assay: Western blot / ELISA detection of Chi3l1, denaturing and non-denaturing

T1 sequence (P36222 22-383 limits assumed): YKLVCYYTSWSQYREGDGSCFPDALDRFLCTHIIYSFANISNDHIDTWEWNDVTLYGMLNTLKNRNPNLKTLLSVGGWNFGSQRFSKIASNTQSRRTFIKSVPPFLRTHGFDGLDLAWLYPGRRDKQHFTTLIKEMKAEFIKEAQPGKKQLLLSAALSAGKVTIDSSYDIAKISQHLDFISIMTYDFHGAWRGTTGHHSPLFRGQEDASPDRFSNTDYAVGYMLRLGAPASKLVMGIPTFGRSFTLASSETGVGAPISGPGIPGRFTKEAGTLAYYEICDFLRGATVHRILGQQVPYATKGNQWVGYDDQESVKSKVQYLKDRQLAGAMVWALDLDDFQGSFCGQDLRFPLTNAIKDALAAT

binding result: binds
B1: FRG monoclonal antibody (anti-Chi3l1) (antibody, IgG2b, V domains shown)
VH: QIQLVQSGPELKKPGETVKISCKASGYTFTNYGMNWVKQAPGKGLKWMGWINTYTGEPTYADDFKGRFAFSLETSASTAYLQINNLRNEDMSTYFCARLGYGKFYVMDYWGQGTSVTVSS
VL: DVVMTQTPLSLPVSLGDQASISCRSSQSLVHSNGNTYLHWYLQKPGQSPKLLIYKVSNRFSGVPDRFSGSGSGTDFTLKISRVEAEDLGVYFCSQSTHVTWTFGGGTKLEIK
notes: The antibody is described as an IgG2b Kappa monoclonal; also called FRG mAb; FRG antibody
